Molecular target: GlmU, glucosamine-1-phosphate N-acetyl transferase/N-acetyl-glucosamine-1-phosphate uridylyltransferase of E. … (E. coli, UniProt P0ACC7 1-456)
Test: SPR

Sequence of GlmU, glucosamine-1-phosphate N-acetyl transferase/N-acetyl-glucosamine-1-phosphate uridylyltransferase of E. … (P0ACC7 whole entry): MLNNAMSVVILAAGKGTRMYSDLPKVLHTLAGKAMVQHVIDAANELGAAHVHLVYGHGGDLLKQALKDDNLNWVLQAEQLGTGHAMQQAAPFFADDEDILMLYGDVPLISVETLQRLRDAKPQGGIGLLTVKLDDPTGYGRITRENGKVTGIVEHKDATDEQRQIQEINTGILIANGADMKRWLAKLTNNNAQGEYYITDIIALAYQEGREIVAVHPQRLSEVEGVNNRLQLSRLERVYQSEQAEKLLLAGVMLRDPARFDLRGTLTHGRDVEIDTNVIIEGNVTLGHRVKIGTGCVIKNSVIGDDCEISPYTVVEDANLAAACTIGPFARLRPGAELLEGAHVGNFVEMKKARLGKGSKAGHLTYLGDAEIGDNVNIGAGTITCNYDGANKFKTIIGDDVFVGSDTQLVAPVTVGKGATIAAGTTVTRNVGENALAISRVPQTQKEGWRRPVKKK

- Kd: 82.5 µM
B1: acetyl-acyl carrier protein (acetyl-ACP) (natural protein)
chain: MSTIEERVKKIIGEQLGVKQEEVTNNASFVEDLGADSLDTVELVMALEEEFDTEIPDEEAEKITTVQAAIDYINGHQA
modifications: prosthetic group with attached acetyl chain (acetyl thioester), made from apo-ACP and acetyl-CoA with [ACP]synthase
